From patent US20260174833A1

Legend:
[1] = target: IL2Rβ and common γ chain on 32Dβ cells; test: cell-based or functional assay
[2] = target: TGFβ1 (R&D systems) (UniProt P01137); test: cell-based or functional assay
Sequence of UniProt P01137 (P01137 279-390 limits assumed): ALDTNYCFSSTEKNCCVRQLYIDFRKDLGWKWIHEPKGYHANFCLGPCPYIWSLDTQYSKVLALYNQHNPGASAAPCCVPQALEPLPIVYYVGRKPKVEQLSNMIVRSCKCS

Substance | EC50, 32Dβ cell proliferation (WST1, absorbance at 450 nM) [1] [nM] | IC50, inhibition of TGFβ1 activity in HEK-Blue TGFβ cells (QUANTI-Blue OD 620-655 nM) [2] [nM]
recombinant IL-15 (from UniProt P40933 49-162) (ligand) | 0.0106 | 
TGFR-Fc (R&D Systems) (from UniProt P37173 24-159) (Fc fusion) |  | 0.461
